Measurements from patent US7026443.

Molecular target: HLA-A*6802 (human)
Experiment: competition with 125I-labelled standard peptide on purified HLA, gel filtration

Question: HPV16 E7 86 TLGIVCPI (peptide) was tested. Which binding affinity ratio (IC50 of standard peptide / IC50 of test peptide) did it give?
Answer: 0.0047
